The results in this text go back to patent US20200283478A1 (Genentech, published 2020).

Bridge positions count the residues as written; N and C are the ends. Square brackets hold non-standard residues; d marks the D form. Ends that are not written are not given here. Trp(6-F) = N[C@@H](Cc1c[nH]c2cc(F)ccc12)C(=O)O; hArg = N=C(N)NCCCC[C@H](N)C(=O)O

For one assay, the target named is T1, PCSK9Δhelix (human, Chemically biotinylated in the phage ELISAs; the site is not given.).
T1 construct: construct M1-Q692 with engineered TEV site, cleaved by TEV; also called His-PCSK9Δhelix; open groove PCSK9Δhelix
Nature of the assay: phage spot ELISA. Background: ELISA stands for enzyme-linked immunosorbent assay.

Assay [1] concerns the target T2, proprotein convertase subtilisin/kexin type 9 (PCSK9) (human, UniProt Q8NBP7 31-692).
T2 construct: His-tagged full-length PCSK9 in TR-FRET and SPR, biotinylated in phage ELISA; secreted protein is autoprocessed (prodomain plus catalytic/CRD chain starting at S153); also called rec.PCSK9; His-PCSK9
Nature of the assay: phage spot ELISA.

The target of a further assay is T3, His-tagged PCSK9Δhelix (human, UniProt Q8NBP7 31-152; Q8NBP7 168-692).
T3 construct: Construct M1-Q692 with engineered TEV site, cut by TEV protease; new N-terminus of the catalytic domain is S-A168; also called His-PCSK9Δhelix
Nature of the assay: TR-FRET competition; His-PCSK9Δhelix, competitor Ab20.

Assay [2] addresses T4, His-tagged, full-length PCSK9 (human, UniProt Q8NBP7 31-692).
T4 construct: The secreted protein is autocleaved into a prodomain and a catalytic/Cys-rich chain that starts at S153; also called His-PCSK9
Nature of the assay: TR-FRET competition; His-PCSK9, competitor EGF(A)-Fc.

T2 sequence (Q8NBP7 other isoform, or with tags, fused parts or gaps limits assumed): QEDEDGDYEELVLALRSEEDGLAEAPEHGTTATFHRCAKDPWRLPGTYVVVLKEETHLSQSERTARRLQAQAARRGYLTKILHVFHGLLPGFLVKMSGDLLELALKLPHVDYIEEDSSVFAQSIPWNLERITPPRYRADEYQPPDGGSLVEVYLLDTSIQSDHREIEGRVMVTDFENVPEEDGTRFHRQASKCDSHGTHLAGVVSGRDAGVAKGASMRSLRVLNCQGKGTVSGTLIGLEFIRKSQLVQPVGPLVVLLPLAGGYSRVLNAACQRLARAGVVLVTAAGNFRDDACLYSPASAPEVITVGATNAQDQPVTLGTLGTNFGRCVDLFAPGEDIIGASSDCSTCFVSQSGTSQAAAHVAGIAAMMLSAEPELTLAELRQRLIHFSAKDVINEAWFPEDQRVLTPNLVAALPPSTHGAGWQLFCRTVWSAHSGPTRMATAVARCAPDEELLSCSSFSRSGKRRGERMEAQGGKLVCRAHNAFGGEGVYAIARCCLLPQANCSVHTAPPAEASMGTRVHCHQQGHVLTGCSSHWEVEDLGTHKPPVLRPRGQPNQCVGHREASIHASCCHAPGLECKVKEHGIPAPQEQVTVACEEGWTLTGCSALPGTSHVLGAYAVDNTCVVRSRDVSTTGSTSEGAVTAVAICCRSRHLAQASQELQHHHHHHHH
T4 sequence (Q8NBP7 other isoform, or with tags, fused parts or gaps limits assumed): as above
T1 sequence (prodomain, as listed by the source mutant limits assumed, chain 1 of 2): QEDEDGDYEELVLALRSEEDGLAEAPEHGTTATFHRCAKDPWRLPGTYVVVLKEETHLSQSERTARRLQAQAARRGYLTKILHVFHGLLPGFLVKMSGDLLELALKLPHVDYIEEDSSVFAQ
T1 sequence (chain, as listed by the source mutant limits assumed, chain 2 of 2): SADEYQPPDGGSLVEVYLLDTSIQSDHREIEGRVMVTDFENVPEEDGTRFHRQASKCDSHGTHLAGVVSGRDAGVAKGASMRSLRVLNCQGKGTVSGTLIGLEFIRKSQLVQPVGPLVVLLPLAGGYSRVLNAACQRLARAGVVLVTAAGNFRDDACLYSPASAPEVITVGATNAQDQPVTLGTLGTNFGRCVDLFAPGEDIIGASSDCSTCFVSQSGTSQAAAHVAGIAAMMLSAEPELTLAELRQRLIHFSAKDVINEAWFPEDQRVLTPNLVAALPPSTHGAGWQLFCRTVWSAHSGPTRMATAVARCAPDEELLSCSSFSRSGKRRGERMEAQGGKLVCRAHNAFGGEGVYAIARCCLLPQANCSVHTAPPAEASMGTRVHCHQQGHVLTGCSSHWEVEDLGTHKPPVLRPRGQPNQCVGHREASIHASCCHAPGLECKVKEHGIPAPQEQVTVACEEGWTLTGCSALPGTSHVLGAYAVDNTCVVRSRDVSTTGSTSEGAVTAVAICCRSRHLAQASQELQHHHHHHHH
T3 sequence (Q8NBP7 31-152, stated change not applied, chain 1 of 2): as the sequence (prodomain, as listed by the source mutant limits assumed, chain 1 of 2) above
T3 sequence (Q8NBP7 other isoform, or with tags, fused parts or gaps mutant, chain 2 of 2): as the sequence (chain, as listed by the source mutant limits assumed, chain 2 of 2) above
Description for His-tagged PCSK9Δhelix: Signal generation in the PCSK9 binding assays was dependent upon the binding interaction to bring into close proximity the His-tag on the PCSK9 and the Fc-tag on the ligand. Anti-His-APC was bound to the His-tag, and anti-Fc-europium was bound to the Fc-tag.
Compounds were solubilized and dilutions were prepared in DMSO. […] The plate was centrifuged to mix the well contents and allowed to incubate for 30 min. […] The normalized TR-FRET ratios were plotted as a function of the compound concentrations, and the IC₅₀ values were determined using a 4-parameter logistic regression.

B1: SEQ ID NO 339 (peptide)
peptide: TAFTSWEEYLDWVGSGCWTYLRGGCSVT
Consider B1, for which, in the assay with PCSK9Δhelix, the ELISA amounted to 3.05 and the s/n ratio amounted to 20.2. Also, in assay [1], the ELISA amounted to 3.07 and the s/n ratio worked out at 22.1.

B2: Compound 241 (peptide)
peptide: Ac-TVFTS[Trp(6-F)]EEYLDWVGSGCRLPWNLQRIGLPC-NH2
modifications: disulfide 17-30 (inferred)
In general, IC50 refers to the concentration that inhibits the measured activity by half. Read a low IC50 as inhibition by little substance. In the case of B2, the IC50 was determined as 100 nM with His-tagged PCSK9Δhelix and 1600 nM in assay [2].

B3: SEQ ID NO 359 (peptide)
peptide: TAFTSWEEYLDWVGSGGDCYPHCRLV
On to B3, for which the ELISA in the assay with PCSK9Δhelix amounted to 2.85; in assay [1] it was 2.86. For the same molecule, the s/n ratio with PCSK9Δhelix amounted to 28.5; in assay [1], 28.9.

B4: SEQ ID NO 354 (peptide)
peptide: TAFTSWEEYLDWVGSGSSTWHFVGGVRV
On to B4, for which, in the assay with PCSK9Δhelix, the ELISA is 2.88 and the s/n ratio amounted to 29.7. In addition, in assay [1], the ELISA worked out at 2.71 and the s/n ratio was determined as 24.4.

B5: SEQ ID NO 344 (peptide)
peptide: TAFTSWEEYLDWVGSGGREMRSVIQM
In the case of B5, in the assay with PCSK9Δhelix, the ELISA stood at 2.74 and the s/n ratio was 26.6. In addition, in assay [1], the ELISA came to 2.71 and the s/n ratio was found to be 28.2.

B6: Compound 239 (peptide)
peptide: WNLV[hArg]IGQR
modifications: also: further groups not given here
notes: Structure printed only as a drawing
On to B6, for which the half-maximal inhibitory concentration (IC50) with His-tagged PCSK9Δhelix worked out at 1200 nM; in assay [2], 32000 nM.

B7: Compound 240 (peptide)
peptide: WNLV[hArg]IGNR
modifications: also: further groups not given here
notes: as for B6
With B7, the half-inhibitory concentration (IC50) with His-tagged PCSK9Δhelix was determined as 920 nM; in assay [2], 31000 nM.

B8: SEQ ID NO 335 (peptide)
peptide: TAFTSWEEYLDWVGSGGVLGVGGMWIA
Turning to B8, in the assay with PCSK9Δhelix, the ELISA is 2.61 and the s/n ratio worked out at 24.4. In assay [1], the ELISA stood at 1.45 and the s/n ratio was determined as 12.8.

B9: SEQ ID NO 334 (peptide)
peptide: TAFTSWEEYLDWVGSGCVKVGLSWIGDCNS
In the case of B9, in the assay with PCSK9Δhelix, the ELISA turned out to be 2.74 and the s/n ratio stood at 25.1. Further, in assay [1], the ELISA came to 2.66 and the s/n ratio turned out to be 23.9.

B10: SEQ ID NO 347 (peptide)
peptide: TAFTSWEEYLDWVGSGNMCYLRGKMDCNIV
For B10, in the assay with PCSK9Δhelix, the ELISA was determined as 2.83 and the s/n ratio is 28.6. Moreover, in assay [1], the ELISA turned out to be 2.91 and the s/n ratio is 30.9.

B11: SEQ ID NO 358 (peptide)
peptide: TAFTSWEEYLDWVGSGGCGYRYMCDMINGL
As to B11, the ELISA with PCSK9Δhelix was 3.01; in assay [1], 2.92. The s/n ratio with PCSK9Δhelix amounted to 30.4; in assay [1], 32.8.

B12: SEQ ID NO 345 (peptide)
peptide: TAFTSWEEYLDWVGSGGDCGYHYMCSMT
For B12, in the assay with PCSK9Δhelix, the ELISA came out at 2.63 and the s/n ratio is 25.5. Also, in assay [1], the ELISA was determined as 2.75 and the s/n ratio stood at 25.

B13: SEQ ID NO 350 (peptide)
peptide: TAFTSWEEYLDWVGSGSETGLGTYYG
Consider B13, for which, in the assay with PCSK9Δhelix, the ELISA is 2.78 and the s/n ratio was 25.5. In assay [1], the ELISA is 2.81 and the s/n ratio came to 28.1.

B14: SEQ ID NO 341 (peptide)
peptide: TAFTSWEEYLDWVGSGQTTYLRVSSS
As to B14, in the assay with PCSK9Δhelix, the ELISA was 2.29 and the s/n ratio is 24.4. Also, in assay [1], the ELISA came out at 2.59 and the s/n ratio turned out to be 27.

B15: SEQ ID NO 346 (peptide)
peptide: TAFTSWEEYLDWVGSGQELPNHRRLS
Turning to B15, in the assay with PCSK9Δhelix, the ELISA came out at 2.43 and the s/n ratio is 14.3. In assay [1], the ELISA came to 2.3 and the s/n ratio came out at 19.1.

B16: SEQ ID NO 348 (peptide)
peptide: TAFTSWEEYLDWVGSGVCSDHYIGGKEVRC
Regarding B16, the ELISA in the assay with PCSK9Δhelix was 2.94; in assay [1], 2.99. The s/n ratio was 15.4 with PCSK9Δhelix and 27.4 in assay [1].

B17: SEQ ID NO 343 (peptide)
peptide: TAFTSWEEYLDWVGSGRGEVYDKGGVIVHL
As to B17, the ELISA amounted to 2.83 in the assay with PCSK9Δhelix and 2.84 in assay [1]. The s/n ratio with PCSK9Δhelix was 30.1; in assay [1], 30.5.

B18: SEQ ID NO 353 (peptide)
peptide: TAFTSWEEYLDWVGSGCLDRSGGCYTREGYLS
Regarding B18, the ELISA with PCSK9Δhelix is 3.05; in assay [1] it was 3.06. The s/n ratio with PCSK9Δhelix amounted to 30.4; in assay [1] it was 29.

B19: Compound 236 (peptide)
peptide: WNLV[hArg]IG-NH2
modifications: N-terminus assumed
SMILES: CC[C@H](C)[C@H](NC(=O)[C@H](CCCCNC(=N)N)NC(=O)[C@@H](NC(=O)[C@H](CC(C)C)NC(=O)[C@H](CC(N)=O)NC(=O)[C@@H](N)Cc1c[nH]c2ccccc12)C(C)C)C(=O)NCC(N)=O
notes: also called WNLV(homoR)IG-NH2
As for B19, the IC50 is 22000 nM in the assay with His-tagged PCSK9Δhelix and at least 50000 nM in assay [2].

B20: SEQ ID NO 337 (peptide)
peptide: TAFTSWEEYLDWVGSGCMEAWQCSLA
B20: in assay [1], the ELISA turned out to be 2.73 and the s/n ratio came out at 24.6.

B21: SEQ ID NO 333 (peptide)
peptide: TAFTSWEEYLDWVGSGDCNLWGDDGKYRLCF
Regarding B21, in the assay with PCSK9Δhelix, the ELISA was 2.81 and the s/n ratio was determined as 23. For the same molecule, in assay [1], the ELISA was 2.72 and the s/n ratio stood at 23.6.

B22: SEQ ID NO 357 (peptide)
peptide: TAFTSWEEYLDWVGSGKMTHMKAD
Consider B22, for which, in the assay with PCSK9Δhelix, the ELISA worked out at 0.106 and the s/n ratio turned out to be 1.07. In assay [1], the ELISA was found to be 2.31 and the s/n ratio was 22.4.

B23: SEQ ID NO 356 (peptide)
peptide: TAFTSWEEYLDWVGSGKCDSHYIRGVVACH
For B23, in the assay with PCSK9Δhelix, the ELISA turned out to be 3.03 and the s/n ratio was 30.9. Moreover, in assay [1], the ELISA amounted to 2.95 and the s/n ratio is 30.2.

B24: SEQ ID NO 351 (peptide)
peptide: TAFTSWEEYLDWVGSGSPCRVGYTPC
In the case of B24, in the assay with PCSK9Δhelix, the ELISA was 2.87 and the s/n ratio came out at 25.4. Also, in assay [1], the ELISA turned out to be 2.92 and the s/n ratio was found to be 27.7.

B25: SEQ ID NO 349 (peptide)
peptide: TAFTSWEEYLDWVGSGCCSYGYEKCCNG
In the case of B25, in the assay with PCSK9Δhelix, the ELISA amounted to 2.88 and the s/n ratio stood at 27.2. In addition, in assay [1], the ELISA turned out to be 2.87 and the s/n ratio amounted to 28.6.

B26: SEQ ID NO 338 (peptide)
peptide: TAFTSWEEYLDWVGSGQCYPWCRL
For the molecule B26, in the assay with PCSK9Δhelix, the ELISA was 2.65 and the s/n ratio stood at 29.2. Besides, in assay [1], the ELISA is 2.71 and the s/n ratio is 25.1.

B27: SEQ ID NO 355 (peptide)
peptide: TAFTSWEEYLDWVGSGCYPLCRVG
Consider B27, for which, in the assay with PCSK9Δhelix, the ELISA turned out to be 3.05 and the s/n ratio was 29.6. Besides, in assay [1], the ELISA is 3.06 and the s/n ratio came out at 16.2.

B28: SEQ ID NO 364 (peptide)
peptide: TAFTSWEEYLDWVGSGCYPLCRVL
On to B28, for which, in the assay with PCSK9Δhelix, the ELISA was determined as 3.09 and the s/n ratio was 31.9. Besides, in assay [1], the ELISA amounted to 2.86 and the s/n ratio amounted to 31.1.

B29: SEQ ID NO 336 (peptide)
peptide: TAFTSWEEYLDWVGSGSYRGAWSVFGGSTD
As for B29, in the assay with PCSK9Δhelix, the ELISA worked out at 2.69 and the s/n ratio was 17.2. Besides, in assay [1], the ELISA was 2.79 and the s/n ratio was found to be 19.5.

B30: SEQ ID NO 342 (peptide)
peptide: TAFTSWEEYLDWVGSGQISYLRNA
modifications: not fully specified; also: Q (1) D-amino acid, place in chain unclear (phage-displayed)
For the molecule B30, the ELISA in the assay with PCSK9Δhelix is 2.31; in assay [1], 2.7. For the same molecule, the s/n ratio worked out at 22.6 with PCSK9Δhelix and 22.9 in assay [1].

B31: SEQ ID NO 340 (peptide)
peptide: TAFTSWEEYLDWVGSGPRTYLRGLVD
Turning to B31, in the assay with PCSK9Δhelix, the ELISA worked out at 2.73 and the s/n ratio turned out to be 25.1. Besides, in assay [1], the ELISA was 2.77 and the s/n ratio worked out at 25.6.

B32: SEQ ID NO 352 (peptide)
peptide: TAFTSWEEYLDWVGSGNCARLYSHQRDYSQVC
Consider B32, for which, in the assay with PCSK9Δhelix, the ELISA was determined as 2.64 and the s/n ratio stood at 26.1. Besides, in assay [1], the ELISA worked out at 2.66 and the s/n ratio was found to be 24.4.
